Substitutions are numbered along the chain they refer to. Numbers in names are those of the source.

The data set “SEC” concerns the molecule itself. The data set is described as follows: SEC.
The data set “crystal structure” deals with the molecule itself. The data set can be described thus: crystal structure.

B1: P. aeruginosa RdgC K146A mutant (natural protein, Pseudomonas aeruginosa PAO1, UniProt Q9HYX7 1-306, looked up)
chain: MWFRNLLVYRLTQDLQLDADSLEKALGEKSARPCASQELTTYGFTAPFGKGPDAPLVHVSQDFFLISARKEERILPGSVVRDALKEKVDEIEAQQMRKVYKKERDQLKDEIVQTLLPRAFIRRSSTFAAIAPSLGLILVDSASAKAAEDLLSTLREALGSLPVRPLSVKVAPTATLTDWVKTQEAAGDFHVLDECELRDTHEDGGVVRCKRQDLTSEEIQLHLTAGKLVTQLSLAWSDKLSFVLDDKLAVKRLRFEDLLQEQAEKDGGEDALGQLDASFTLMMLTFAEFLPALFEALGGEEIPQGV
Regarding B1, the binding result in the data set “SEC” is listed as “binds”.

B2: P. aeruginosa RdgC R252A mutant (natural protein, Pseudomonas aeruginosa PAO1, UniProt Q9HYX7 1-306, looked up)
chain: B1 chain with A146K, R252A
In the case of B2, in “SEC”, the binding result is “binds”.

B3: P. aeruginosa RdgC R211D mutant (natural protein, Pseudomonas aeruginosa PAO1, UniProt Q9HYX7 1-306, looked up)
chain: B1 chain with A146K, R211D
Turning to B3, the binding result in “SEC” is “binds”.

B4: P. aeruginosa RdgC R122D mutant (natural protein, Pseudomonas aeruginosa PAO1, UniProt Q9HYX7 1-306, looked up)
chain: B1 chain with R122D, A146K
Consider B4, for which, in the data set “SEC”, the binding result is “binds”.

B5: P. aeruginosa RdgC K70D mutant (natural protein, Pseudomonas aeruginosa PAO1, UniProt Q9HYX7 1-306, looked up)
chain: B1 chain with K70D, A146K
Consider B5, for which, in the data set “SEC”, the binding result was “binds”.

B6: P. aeruginosa RdgC F120A mutant (natural protein, Pseudomonas aeruginosa PAO1, UniProt Q9HYX7 1-306, looked up)
chain: B1 chain with F120A, A146K
With B6, the binding result in the data set “SEC” is reported as “binds”.

B7: P. aeruginosa RdgC Q212A mutant (natural protein, Pseudomonas aeruginosa PAO1, UniProt Q9HYX7 1-306, looked up)
chain: B1 chain with A146K, Q212A
Turning to B7, the binding result in “SEC” is recorded as “binds”.

B8: P. aeruginosa RdgC R81D mutant (natural protein, Pseudomonas aeruginosa PAO1, UniProt Q9HYX7 1-306, looked up)
chain: B1 chain with R81D, A146K
Regarding B8, the binding result in “SEC” is “binds”.

B9: Pseudomonas aeruginosa RdgC (recombination-associated DNA-binding protein), wild type (natural protein, Pseudomonas aeruginosa PAO1, UniProt Q9HYX7 1-306, looked up)
chain: B1 chain with A146K
A word on the stoichiometry N: it is a count of units in the complex or per binding partner. Turning to B9, the “stoichiometry N” value in “crystal structure” was determined as 2.

B10: P. aeruginosa RdgC R208A mutant (natural protein, Pseudomonas aeruginosa PAO1, UniProt Q9HYX7 1-306, looked up)
chain: B1 chain with A146K, R208A
As for B10, the binding result in “SEC” is reported as “binds”.

B11: P. aeruginosa RdgC R198A mutant (natural protein, Pseudomonas aeruginosa PAO1, UniProt Q9HYX7 1-306, looked up)
chain: B1 chain with A146K, R198A
With B11, in the data set “SEC”, the binding result is recorded as “binds”.

B12: P. aeruginosa RdgC R4A mutant (natural protein, Pseudomonas aeruginosa PAO1, UniProt Q9HYX7 1-306, looked up)
chain: B1 chain with R4A, A146K
As to B12, in “SEC”, the binding result was “binds”.
